Target: purified catalytic subunit of cAMP-dependent protein kinase (PKA)
Test: kinetic analysis of PKA phosphorylation of ARPP-21 at 0-15 uM phospho-Thr75 DARPP-32; Lineweaver-Burk and secondary plot, competitive inhibition

Ki: 2700 nM
B1: phospho-Thr75 DARPP-32 (other)
chain: MDPKDRKKIQFSVPAPPSQLDPRQVEMIRRRRPTPAMLFRLSEHSSPEEEASPHQRASGEGHHLKSKRPNPCAYTPPSLKAVQRIAESHLQSISNLNENQASEEEDELGELRELGYPREEDEEEEEDDEEEEEEEDSQAEVLKVIRQSAGQKTTRGLGLEGPWERPPPLDESERDGGSEDQVEDPALSEPGEEPQRPSPSEPGR

Reference: patent publication US6989362 (ROCKEFELLER UNIVERSITY, dated 2006)
